Results on one protein are retold here after paper PMC3282623, “High-pressure-induced water penetration into 3-isopropylmalate dehydrogenase” (Acta Crystallographica Section D: Biological Crystallography, 2012).

In general, stoichiometry N refers to a count of units in the complex or per binding partner.

This data set deals with the molecule itself. The experiment in a line: crystal structure; crystals of the SoIPMDH-IPM complex, space group C2, room temperature, in a glass capillary (0.1 MPa) or a diamond anvil cell (160, 340, 410, 580 and 650 MPa); 18% PEG 3350, 100 mM Na HEPES pH 7.0, 200 mM calcium acetate, 10 mM magnesium chloride, 10 mM IPM.

B1: 3-isopropylmalate dehydrogenase (IPMDH) from Shewanella oneidensis MR-1 (enzyme)
chain: SYQIAVLAGDGIGPEVMAEARKVLKAVEARFGLNIEYTEYDVGGIAIDNHGCPLPEATLKGCEAADAILFGSVGGPKWEKLPPNEQPERGALLPLRGHFELFCNLRPAKLHDGLEHMSPLRSDISARGFDVLCVRELTGGIYFGKPKGRQGEGESEEAFDTMRYSRREISRIARIAFEAARGRRKKVTSVDKANVLACSVLWRQVVEEVAVDFPDVELEHIYIDNATMQLLRRPDEFDVMLCSNLFGDILSDEIAMLTGSMGLLSSASMNSTGFGLFEPAGGSAPDIAGKGIANPIAQILSAALMLRHSLKQEEAASAIERAVTKALNSGYLTGELLSSDQRHKAKTTVQMGDFIADAVKAGV
notes: 3-isopropylmalate dehydrogenase, product of the leuB gene of Shewanella oneidensis MR-1, subcloned into the BamHI/HindIII sites of pQE-80L (vector pQE-MR1-leuB); Crystallised in complex with its substrate 3-isopropylmalate (IPM) and a divalent cation; the two subunits of the dimer are related by the crystallographic twofold axis; also called SoIPMDH
For the protein B1, the “stoichiometry N” value turned out to be 2.
